These results are taken from PMC12565409, “Computational–Experimental Identification of Palindromic Motifs Bound by Bacterial XRE Family Transcriptional Regulators”.

The series concerns the target Motif_38 protein HW450_07255 (UniProt A0A7G5FC37 1-70). The series can be described thus: EMSA; EMSA: 20 mM Tris-HCl pH 7.5, 250 mM NaCl, 5% glycerol; 2 uL of 1 uM FAM-DNA (labeled:unlabeled strand 1:4) + 2 uL of ~10 uM protein in 20 uL; 37 C, 30 min. Particulars: protein: recombinant; tags: His (pET-28a, Ni column); label: 5'FAM on strand 1; blunt. A general note: Mobility shift assays separate free from complexed probe on a gel.

B1: Mot38-WT (dsDNA)
DNA 1: AATAAATCGGCACAATCGTGCCGATTTTGG
DNA 2: CCAAAATCGGCACGATTGTGCCGATTTATT
Take B1: the binding result is “binds”.
